Assays:
AncSZ = assay: phosphorylation enrichment, bacterial display (enrichment ratio); higher = better substrate or ligand; peptides without Tyr show the background
EPHB1 = EPHB1 (UniProt P54762); assay: as above
EPHB2 = EPHB2 (UniProt P29323); assay: as above
FGFR1 = FGFR1 (UniProt P11362); assay: as above
FGFR3 = FGFR3 (UniProt P22607); assay: as above
Fer (mouse) = assay: as above
Fes = Fes (UniProt P07332); assay: as above
Fyn = Fyn (UniProt P06241); assay: as above
Hck = Hck (UniProt P08631); assay: as above
Jak2 = Jak2 (UniProt O60674); assay: as above
MERTK = MERTK (UniProt Q12866); assay: as above
c-Abl (mouse) = assay: as above
c-Src = assay: as above
Grb2 SH2 = Grb2 SH2 (UniProt P62993); assay: SH2 binding enrichment of the phosphorylated peptide, bacterial display (enrichment ratio); higher = better substrate or ligand; peptides without Tyr show the background
SHP2-C SH2 = assay: as above
c-Src SH2 = assay: as above
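Throughout, for SH2 binding enrichment of the phosphorylated peptide, bacterial display: peptide library displayed on the E. coli surface as eCPX fusions, selected cells deep-sequenced, score is each peptide's frequency after selection divided by its frequency in the input.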
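Throughout, for phosphorylation enrichment, bacterial display: 11-residue human phosphosite peptides and single-mutation variants displayed on the E. coli surface, counted by deep sequencing, each peptide's frequency after selection divided by its frequency in the unselected input library; frequency after pTyr selection over input frequency; kinase dosed for 20-30% of maximal phosphorylation in three min.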

EPHB1, sequence (P54762 whole entry, looked up): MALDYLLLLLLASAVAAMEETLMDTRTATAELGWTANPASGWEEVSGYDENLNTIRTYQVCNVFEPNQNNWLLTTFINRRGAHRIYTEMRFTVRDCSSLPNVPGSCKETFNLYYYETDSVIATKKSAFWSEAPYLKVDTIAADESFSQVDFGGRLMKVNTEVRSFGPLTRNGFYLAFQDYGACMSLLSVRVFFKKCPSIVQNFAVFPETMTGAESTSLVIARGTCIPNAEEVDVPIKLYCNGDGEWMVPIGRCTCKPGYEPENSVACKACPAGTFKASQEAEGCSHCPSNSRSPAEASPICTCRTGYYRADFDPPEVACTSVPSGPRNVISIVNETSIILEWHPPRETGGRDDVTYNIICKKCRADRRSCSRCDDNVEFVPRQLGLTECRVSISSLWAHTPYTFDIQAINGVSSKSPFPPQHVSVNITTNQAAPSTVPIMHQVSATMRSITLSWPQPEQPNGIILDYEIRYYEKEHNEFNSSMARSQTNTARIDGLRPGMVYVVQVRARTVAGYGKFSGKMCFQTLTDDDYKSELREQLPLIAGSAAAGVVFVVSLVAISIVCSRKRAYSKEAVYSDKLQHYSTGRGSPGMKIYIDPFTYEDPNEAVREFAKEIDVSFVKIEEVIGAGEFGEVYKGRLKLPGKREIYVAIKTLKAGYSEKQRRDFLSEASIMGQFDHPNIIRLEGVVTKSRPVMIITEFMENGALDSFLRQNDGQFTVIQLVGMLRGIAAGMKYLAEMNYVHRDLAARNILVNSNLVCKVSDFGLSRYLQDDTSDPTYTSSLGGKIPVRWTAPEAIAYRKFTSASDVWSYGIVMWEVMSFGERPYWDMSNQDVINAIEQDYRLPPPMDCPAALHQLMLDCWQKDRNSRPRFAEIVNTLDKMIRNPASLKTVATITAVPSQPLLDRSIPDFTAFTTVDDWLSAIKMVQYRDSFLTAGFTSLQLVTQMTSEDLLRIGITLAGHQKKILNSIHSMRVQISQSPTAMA
Hck, sequence (P08631 whole entry, looked up): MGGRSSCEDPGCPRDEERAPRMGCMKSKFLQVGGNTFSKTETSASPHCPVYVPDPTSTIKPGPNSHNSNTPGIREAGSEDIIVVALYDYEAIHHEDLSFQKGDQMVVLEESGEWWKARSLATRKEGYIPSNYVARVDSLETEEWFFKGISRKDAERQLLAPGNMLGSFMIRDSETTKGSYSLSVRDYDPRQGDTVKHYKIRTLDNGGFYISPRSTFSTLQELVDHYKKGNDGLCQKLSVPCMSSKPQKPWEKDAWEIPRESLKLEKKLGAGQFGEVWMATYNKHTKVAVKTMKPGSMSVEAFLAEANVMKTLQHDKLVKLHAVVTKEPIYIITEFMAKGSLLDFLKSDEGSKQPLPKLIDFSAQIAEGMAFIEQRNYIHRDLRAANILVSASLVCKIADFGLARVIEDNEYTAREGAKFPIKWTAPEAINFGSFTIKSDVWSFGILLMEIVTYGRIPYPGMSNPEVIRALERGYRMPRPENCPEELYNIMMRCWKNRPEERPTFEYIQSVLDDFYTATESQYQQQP
Fes, sequence (P07332 whole entry, looked up): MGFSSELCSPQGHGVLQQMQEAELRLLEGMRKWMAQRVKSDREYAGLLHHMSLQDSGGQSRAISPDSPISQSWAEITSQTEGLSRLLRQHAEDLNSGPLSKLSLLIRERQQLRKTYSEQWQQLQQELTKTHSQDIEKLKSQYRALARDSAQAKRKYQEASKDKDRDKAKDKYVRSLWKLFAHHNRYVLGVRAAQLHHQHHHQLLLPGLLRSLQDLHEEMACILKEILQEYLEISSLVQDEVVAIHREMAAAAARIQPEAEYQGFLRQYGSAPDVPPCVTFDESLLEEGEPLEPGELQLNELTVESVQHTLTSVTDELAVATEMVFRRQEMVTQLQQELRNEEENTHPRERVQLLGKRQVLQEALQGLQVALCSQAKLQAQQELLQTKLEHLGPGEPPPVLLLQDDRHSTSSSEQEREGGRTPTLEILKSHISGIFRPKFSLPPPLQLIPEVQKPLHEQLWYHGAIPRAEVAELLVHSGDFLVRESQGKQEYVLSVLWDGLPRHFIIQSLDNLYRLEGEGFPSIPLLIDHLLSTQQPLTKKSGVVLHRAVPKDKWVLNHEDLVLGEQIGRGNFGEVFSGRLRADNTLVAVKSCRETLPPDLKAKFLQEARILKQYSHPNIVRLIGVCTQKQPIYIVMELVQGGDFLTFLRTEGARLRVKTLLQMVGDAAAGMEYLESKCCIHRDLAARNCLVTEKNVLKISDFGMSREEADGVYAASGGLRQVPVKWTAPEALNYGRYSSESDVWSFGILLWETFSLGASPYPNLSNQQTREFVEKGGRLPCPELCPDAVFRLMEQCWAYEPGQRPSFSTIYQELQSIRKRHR
Fyn, sequence (P06241 whole entry, looked up): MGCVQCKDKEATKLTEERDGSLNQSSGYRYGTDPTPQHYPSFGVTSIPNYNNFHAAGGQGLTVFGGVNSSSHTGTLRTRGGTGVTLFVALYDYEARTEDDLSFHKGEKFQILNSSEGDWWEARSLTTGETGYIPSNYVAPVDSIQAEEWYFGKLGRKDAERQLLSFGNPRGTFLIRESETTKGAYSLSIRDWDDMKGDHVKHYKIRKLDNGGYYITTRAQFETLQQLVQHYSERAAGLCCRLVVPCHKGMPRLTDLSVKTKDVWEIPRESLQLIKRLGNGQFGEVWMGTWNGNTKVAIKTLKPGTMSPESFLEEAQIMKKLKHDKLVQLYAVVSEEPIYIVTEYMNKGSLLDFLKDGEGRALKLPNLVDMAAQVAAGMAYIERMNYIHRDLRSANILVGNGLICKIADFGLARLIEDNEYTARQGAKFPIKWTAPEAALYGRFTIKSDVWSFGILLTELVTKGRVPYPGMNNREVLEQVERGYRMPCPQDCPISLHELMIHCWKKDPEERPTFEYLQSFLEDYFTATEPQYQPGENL
FGFR1, sequence (P11362 whole entry, looked up): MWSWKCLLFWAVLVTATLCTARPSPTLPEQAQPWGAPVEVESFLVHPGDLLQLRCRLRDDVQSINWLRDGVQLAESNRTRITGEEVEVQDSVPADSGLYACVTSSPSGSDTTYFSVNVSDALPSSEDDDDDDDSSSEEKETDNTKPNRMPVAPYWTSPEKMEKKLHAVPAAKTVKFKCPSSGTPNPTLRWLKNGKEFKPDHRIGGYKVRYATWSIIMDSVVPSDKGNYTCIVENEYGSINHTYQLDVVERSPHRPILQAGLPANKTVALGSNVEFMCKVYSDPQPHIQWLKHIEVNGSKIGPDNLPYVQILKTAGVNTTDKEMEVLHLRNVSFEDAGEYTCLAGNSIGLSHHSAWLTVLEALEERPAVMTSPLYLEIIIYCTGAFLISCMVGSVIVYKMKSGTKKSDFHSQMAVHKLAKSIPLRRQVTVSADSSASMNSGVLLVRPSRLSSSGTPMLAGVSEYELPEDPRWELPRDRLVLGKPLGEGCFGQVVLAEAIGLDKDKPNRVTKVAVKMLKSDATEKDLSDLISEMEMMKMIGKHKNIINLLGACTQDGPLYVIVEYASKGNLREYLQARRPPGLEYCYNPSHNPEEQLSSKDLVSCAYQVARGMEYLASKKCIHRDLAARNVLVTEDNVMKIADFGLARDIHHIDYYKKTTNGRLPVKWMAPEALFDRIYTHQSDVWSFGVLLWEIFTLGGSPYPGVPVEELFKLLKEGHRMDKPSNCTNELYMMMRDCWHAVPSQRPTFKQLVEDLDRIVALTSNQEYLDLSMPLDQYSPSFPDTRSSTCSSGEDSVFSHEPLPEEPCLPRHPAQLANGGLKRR
MERTK, sequence (Q12866 whole entry, looked up): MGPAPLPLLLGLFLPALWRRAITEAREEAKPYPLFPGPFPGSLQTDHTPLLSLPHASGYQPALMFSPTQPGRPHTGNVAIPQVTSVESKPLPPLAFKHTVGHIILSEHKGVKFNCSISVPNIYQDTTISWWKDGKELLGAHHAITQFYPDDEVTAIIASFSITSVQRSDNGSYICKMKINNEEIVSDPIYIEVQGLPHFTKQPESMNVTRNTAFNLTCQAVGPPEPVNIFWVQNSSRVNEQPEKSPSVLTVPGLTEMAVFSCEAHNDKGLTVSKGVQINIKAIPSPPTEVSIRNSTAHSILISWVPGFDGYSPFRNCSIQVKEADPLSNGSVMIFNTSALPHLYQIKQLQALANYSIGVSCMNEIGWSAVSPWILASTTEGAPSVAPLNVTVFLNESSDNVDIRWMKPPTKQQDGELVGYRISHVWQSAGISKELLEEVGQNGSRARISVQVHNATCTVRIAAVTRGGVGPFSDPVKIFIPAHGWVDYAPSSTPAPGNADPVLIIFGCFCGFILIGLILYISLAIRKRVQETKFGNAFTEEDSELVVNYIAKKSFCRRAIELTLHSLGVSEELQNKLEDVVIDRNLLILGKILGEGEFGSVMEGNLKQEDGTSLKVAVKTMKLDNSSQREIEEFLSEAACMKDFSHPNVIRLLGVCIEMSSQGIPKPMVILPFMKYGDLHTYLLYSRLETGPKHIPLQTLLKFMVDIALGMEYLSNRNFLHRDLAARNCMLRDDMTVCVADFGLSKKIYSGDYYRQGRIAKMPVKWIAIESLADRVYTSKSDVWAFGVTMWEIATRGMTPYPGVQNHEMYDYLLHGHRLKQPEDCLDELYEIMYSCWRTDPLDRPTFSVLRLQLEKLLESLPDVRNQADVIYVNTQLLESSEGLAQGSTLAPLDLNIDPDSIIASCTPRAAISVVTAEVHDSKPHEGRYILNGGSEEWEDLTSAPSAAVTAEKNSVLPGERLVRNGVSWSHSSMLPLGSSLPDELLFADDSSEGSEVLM

| SH2 binding enrichment (Grb2 SH2) | SH2 binding enrichment (SHP2-C SH2) | SH2 binding enrichment (c-Src SH2) | Sequence | phosphorylation enrichment (AncSZ) | phosphorylation enrichment (EPHB1) | phosphorylation enrichment (EPHB2) | phosphorylation enrichment (FGFR1) | phosphorylation enrichment (FGFR3) | phosphorylation enrichment (Fer (mouse)) | phosphorylation enrichment (Fes) | phosphorylation enrichment (Fyn) | phosphorylation enrichment (Hck) | phosphorylation enrichment (Jak2) | phosphorylation enrichment (MERTK) | phosphorylation enrichment (c-Abl (mouse)) | phosphorylation enrichment (c-Src) |
| --- | --- | --- | --- | --- | --- | --- | --- | --- | --- | --- | --- | --- | --- | --- | --- | --- |
| 0.911 | 0.787 | 0.565 | FRDMDYRSFPH [RBM10_Y41_R46H_YF] | 0.55 | 0.442 | 0.388 | 0.577 | 0.449 | 0.407 | 0.698 | 0.419 | 0.314 | 0.667 | 0.385 | 0.549 | 0.436 |
| 2.44 | 0.948 | 0.666 | ELTAKYLNYYR [P3H4_Y181_Q186R] | 0.639 | 0.606 | 0.512 | 0.498 | 0.541 | 0.392 | 0.748 | 0.369 | 0.419 | 0.616 | 0.496 | 0.498 | 0.374 |
| 1.96 | 0.798 | 0.75 | RGGDSYGGPPR [RBMX_Y190_R187G] | 0.498 | 0.399 | 0.5 | 0.454 | 0.58 | 0.441 | 0.848 | 0.524 | 0.656 | 0.43 | 0.586 | 0.735 | 0.592 |

The next lines start with the sequence.

| Sequence | SH2 binding enrichment (Grb2 SH2) | SH2 binding enrichment (SHP2-C SH2) | SH2 binding enrichment (c-Src SH2) | phosphorylation enrichment (AncSZ) | phosphorylation enrichment (EPHB1) | phosphorylation enrichment (EPHB2) | phosphorylation enrichment (FGFR1) | phosphorylation enrichment (FGFR3) | phosphorylation enrichment (Fer (mouse)) | phosphorylation enrichment (Fes) | phosphorylation enrichment (Fyn) | phosphorylation enrichment (Hck) | phosphorylation enrichment (Jak2) | phosphorylation enrichment (MERTK) | phosphorylation enrichment (c-Abl (mouse)) | phosphorylation enrichment (c-Src) |
| --- | --- | --- | --- | --- | --- | --- | --- | --- | --- | --- | --- | --- | --- | --- | --- | --- |
| QGLRLYRSHLA [BTK_Y617_P619S] | 1.21 | 0.888 | 1.03 | 0.935 | 0.718 | 0.408 | 0.552 | 0.5 | 0.527 | 1.04 | 0.571 | 0.38 | 0.75 | 0.417 | 0.801 | 0.51 |
| KRLAVYIDEEA [EPM2A_Y304_P301L] | 0.85 | 0.486 | 0.507 | 1.11 | 0.665 | 0.615 | 0.514 | 0.837 | 0.524 | 1.14 | 0.601 | 0.496 | 1.23 | 0.484 | 0.781 | 0.578 |
| DLVLQYLRVPL [F9_Y371_A366D] | 1.47 | 1.23 | 0.776 | 1.09 | 0.489 | 0.525 | 0.528 | 0.757 | 0.435 | 1.13 | 0.518 | 0.469 | 3.15 | 0.404 | 0.617 | 0.46 |
| HRLSTYTKMLF [CHST8_Y251] | 1.7 | 1.87 | 1.98 | 1.18 | 0.723 | 0.655 | 0.428 | 0.74 | 0.689 | 1.52 | 0.443 | 0.744 | 1.22 | 0.707 | 1.02 | 0.585 |
| NRVEIYDKTVE [CYFIP1_Y108_E109D] | 1.15 | 0.504 | 0.798 | 0.905 | 0.495 | 0.521 | 0.534 | 0.519 | 0.435 | 0.938 | 0.443 | 0.682 | 0.755 | 0.4 | 0.576 | 0.47 |

Source: the supplement of paper PMC10065799, “High-throughput profiling of sequence recognition by tyrosine kinases and SH2 domains using bacterial peptide display” (eLife, 2023)
